How the values were obtained:
Human LIFR-Fc = target: T1, Human LIFR-Fc (human, UniProt P42702 45-833); assay: SPR
T1 sequence (looked up): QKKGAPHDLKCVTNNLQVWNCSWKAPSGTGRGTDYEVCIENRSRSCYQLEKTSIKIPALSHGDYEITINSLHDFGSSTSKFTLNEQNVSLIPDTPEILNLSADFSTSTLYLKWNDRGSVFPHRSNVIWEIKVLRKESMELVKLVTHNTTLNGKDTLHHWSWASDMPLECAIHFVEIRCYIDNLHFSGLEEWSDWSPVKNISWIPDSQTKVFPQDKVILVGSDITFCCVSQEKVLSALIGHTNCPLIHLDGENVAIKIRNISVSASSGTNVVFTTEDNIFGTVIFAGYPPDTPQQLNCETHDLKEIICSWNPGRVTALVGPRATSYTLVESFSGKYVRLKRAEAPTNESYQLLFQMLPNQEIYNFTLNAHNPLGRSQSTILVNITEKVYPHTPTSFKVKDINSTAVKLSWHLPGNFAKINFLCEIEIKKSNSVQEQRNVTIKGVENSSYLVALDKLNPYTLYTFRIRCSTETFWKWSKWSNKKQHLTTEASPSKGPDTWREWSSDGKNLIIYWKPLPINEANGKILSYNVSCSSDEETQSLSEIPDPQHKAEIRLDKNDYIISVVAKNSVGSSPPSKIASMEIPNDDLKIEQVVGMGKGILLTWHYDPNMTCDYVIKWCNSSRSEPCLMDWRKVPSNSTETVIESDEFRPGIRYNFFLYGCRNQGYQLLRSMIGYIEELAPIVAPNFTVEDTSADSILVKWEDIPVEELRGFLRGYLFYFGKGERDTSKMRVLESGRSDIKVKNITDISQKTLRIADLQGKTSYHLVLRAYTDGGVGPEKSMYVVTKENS

[1] = target: LIFR labelled with fluorescent dye (MST target) (UniProt P42702 45-1097, fluorescent dye, NHS chemistry); assay: MST

Kd (Human LIFR-Fc): 7 µM
Kd [1]: 0.00136 µM
B1: Recombinant human leukemia inhibitory factor (LIF) (ligand)
chain: not shown
